Experimental data taken from patent US20250002610A1 (Genmab, published 2025).

T1: cynomolgus monkey DR4 with death domain deletion on ExpiCHO-S cells (cynomolgus monkey (Macaca fascicularis))
T1 construct: also called cynomolgus DR4
T1 chain: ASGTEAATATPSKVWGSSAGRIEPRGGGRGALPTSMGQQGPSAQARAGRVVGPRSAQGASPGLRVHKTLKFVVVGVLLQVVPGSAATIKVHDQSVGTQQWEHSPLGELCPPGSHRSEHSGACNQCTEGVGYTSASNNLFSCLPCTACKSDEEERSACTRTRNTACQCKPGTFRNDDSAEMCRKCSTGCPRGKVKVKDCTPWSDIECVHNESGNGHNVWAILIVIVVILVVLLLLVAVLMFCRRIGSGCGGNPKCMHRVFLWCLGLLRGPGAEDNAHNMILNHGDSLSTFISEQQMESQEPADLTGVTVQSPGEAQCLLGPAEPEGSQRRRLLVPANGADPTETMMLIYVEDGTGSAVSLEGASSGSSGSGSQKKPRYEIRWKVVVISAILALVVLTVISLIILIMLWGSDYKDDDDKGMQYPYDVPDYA

T2: human FAPα (Fibroblast activation protein alpha), cell surface expressed (human, UniProt Q12884 1-760)
T2 construct: Endogenous on human lung fibroblasts and CAFs
T2 sequence: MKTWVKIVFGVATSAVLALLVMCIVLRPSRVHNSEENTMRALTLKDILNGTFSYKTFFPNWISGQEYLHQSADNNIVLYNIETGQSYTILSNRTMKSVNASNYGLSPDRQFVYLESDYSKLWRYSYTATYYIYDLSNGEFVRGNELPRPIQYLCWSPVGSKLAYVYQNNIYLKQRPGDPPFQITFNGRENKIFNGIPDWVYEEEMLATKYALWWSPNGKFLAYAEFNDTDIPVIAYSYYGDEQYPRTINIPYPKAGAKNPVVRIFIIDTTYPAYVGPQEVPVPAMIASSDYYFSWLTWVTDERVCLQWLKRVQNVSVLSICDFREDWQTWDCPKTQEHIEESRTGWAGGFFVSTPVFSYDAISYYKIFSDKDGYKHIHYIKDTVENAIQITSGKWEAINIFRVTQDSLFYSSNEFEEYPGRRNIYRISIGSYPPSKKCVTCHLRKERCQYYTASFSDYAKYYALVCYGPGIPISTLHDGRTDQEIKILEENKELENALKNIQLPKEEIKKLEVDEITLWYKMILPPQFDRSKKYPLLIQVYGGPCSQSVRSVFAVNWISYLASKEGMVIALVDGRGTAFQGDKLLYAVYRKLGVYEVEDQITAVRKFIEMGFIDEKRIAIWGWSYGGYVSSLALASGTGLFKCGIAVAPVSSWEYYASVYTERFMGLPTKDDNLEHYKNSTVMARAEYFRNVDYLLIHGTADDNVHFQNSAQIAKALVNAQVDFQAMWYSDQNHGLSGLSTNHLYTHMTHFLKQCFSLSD

B1: BisG1-DR4-FEAL/b12-FEAR (bispecific antibody, human IgG1, kappa, lambda)
heavy 1: QVQLQESGPGLVKPSGTLSLTCAVSGGSISSYSWWSWIRQPPGKGLEWIGELYHSGSTNYNPSLKSRVTISVDKSKNQFSLKLRSVTAADTAVYYCVRGVATIDYWGQGTLVTVSSASTKGPSVFPLAPSSKSTSGGTAALGCLVKDYFPEPVTVSWNSGALTSGVHTFPAVLQSSGLYSLSSVVTVPSSSLGTQTYICNVNHKPSNTKVDKRVEPKSCDKTHTCPPCPAPEFEGGPSVFLFPPKPKDTLMISRTPEVTCVVVAVSHEDPEVKFNWYVDGVEVHNAKTKPREEQYNSTYRVVSVLTVLHQDWLNGKEYKCKVSNKALPAPIEKTISKAKGQPREPQVYTLPPSREEMTKNQVSLTCLVKGFYPSDIAVEWESNGQPENNYKTTPPVLDSDGSFLLYSKLTVDKSRWQQGNVFSCSVMHEALHNHYTQKSLSLSPG
light 1: QSALTQPPSASGSPGQSVTISCTGTSSDVGGYNFVSWYQQDPGKAPKLLIYEVTKRPSGVPDRFSGSKSGNTASLTVSGLQAEDEADYYCSSYAGSNNVMFGGGTKLTVLGQPKAAPSVTLFPPSSEELQANKATLVCLISDFYPGAVTVAWKADSSPVKAGVETTTPSKQSNNKYAASSYLSLTPEQWKSHRSYSCQVTHEGSTVEKTVAPTECS
heavy 2: QVQLVQSGAEVKKPGASVKVSCQASGYRFSNFVIHWVRQAPGQRFEWMGWINPYNGNKEFSAKFQDRVTFTADTSANTAYMELRSLRSADTAVYYCARVGPYSWDDSPQDNYYMDVWGKGTTVIVSSASTKGPSVFPLAPSSKSTSGGTAALGCLVKDYFPEPVTVSWNSGALTSGVHTFPAVLQSSGLYSLSSVVTVPSSSLGTQTYICNVNHKPSNTKVDKRVEPKSCDKTHTCPPCPAPEFEGGPSVFLFPPKPKDTLMISRTPEVTCVVVAVSHEDPEVKFNWYVDGVEVHNAKTKPREEQYNSTYRVVSVLTVLHQDWLNGKEYKCKVSNKALPAPIEKTISKAKGQPREPQVYTLPPSREEMTKNQVSLTCLVKGFYPSDIAVEWESNGQPENNYKTTPPVLDSDGSFFLYSRLTVDKSRWQQGNVFSCSVMHEALHNHYTQKSLSLSPG
light 2: EIVLTQSPGTLSLSPGERATFSCRSSHSIRSRRVAWYQHKPGQAPRLVIHGVSNRASGISDRFSGSGSGTDFTLTITRVEPEDFALYYCQVYGASSYTFGQGTKLERKRTVAAPSVFIFPPSDEQLKSGTASVVCLLNNFYPREAKVQWKVDNALQSGNSQESVTEQDSKDSTYSLSSTLTLSKADYEKHKVYACEVTHQGLSSPVTKSFNRGEC
notes: Fab-arm exchange of IgG1-DR4-FEAL and IgG1-b12-FEAR
B2: IgG1-FAP5-FEAL (antibody)
heavy: QVQLQQSGAELARPGASVNLSCLASGYTFTNNGINWLKQRTGQGLEWIGEIYPRSTNTLYNEKFKGKATLTADRSSNTAYMELRSLTSEDSAVYFCARTLTAPFAFWGQGTLVTVSSASTKGPSVFPLAPSSKSTSGGTAALGCLVKDYFPEPVTVSWNSGALTSGVHTFPAVLQSSGLYSLSSVVTVPSSSLGTQTYICNVNHKPSNTKVDKRVEPKSCDKTHTCPPCPAPEFEGGPSVFLFPPKPKDTLMISRTPEVTCVVVAVSHEDPEVKFNWYVDGVEVHNAKTKPREEQYNSTYRVVSVLTVLHQDWLNGKEYKCKVSNKALPAPIEKTISKAKGQPREPQVYTLPPSREEMTKNQVSLTCLVKGFYPSDIAVEWESNGQPENNYKTTPPVLDSDGSFLLYSKLTVDKSRWQQGNVFSCSVMHEALHNHYTQKSLSLSPG
light: QIVLTQSPAIMSASPGELVTMTCSASSGVNFMHWYQQLSGTSPKRWIFDTSKLASGVPARFSGSGSGTSYSLTISSMEAEDAATYYCQQWSFNPPTFGGGTKLEIKRTVAAPSVFIFPPSDEQLKSGTASVVCLLNNFYPREAKVQWKVDNALQSGNSQESVTEQDSKDSTYSLSSTLTLSKADYEKHKVYACEVTHQGLSSPVTKSFNRGEC
notes: Prior art clone FAP5 (US20090304718A1) with FEAL constant region

Columns and labels:
[1] = target: T3, human DR4 with death domain deletion on ExpiCHO-S cells (human); test: flow cytometry, ExpiCHO-S cells expressing human DR4, n = 2
Method: (§1) Binding of BisG1-FAPα-FERL/DR4-FERR, BisG1-DR4-FEAL/b12-FEAR and IgG1-DR4-FERR to DR4 of various species commonly used for nonclinical toxicology studies was assessed by flow cytometry using ExpiCHO-S cells transiently expressing DR4 from different animal species. In contrast to other species, rodents only express one DR which has highest homology with human DR5. Therefore, ExpiCHO-S cells transiently expressing rat and mouse DR protein were used instead. All DR constructs lack the intracellular DD to avoid apoptosis of transfected cells upon DR(4) activation. IgG1-b12 was used as negative control.

[2] = target: T3, human DR4 with death domain deletion on …; test: flow cytometry, ExpiCHO-S cells expressing human DR4, n = 1
Method: as §1

[3] = target: T1, cynomolgus monkey DR4 with death domain …; test: flow cytometry on ExpiCHO-S cells transiently expressing cynomolgus monkey DR4 (death domain deleted), gMFI PE
[4] = target: T3, human DR4 with death domain deletion on …; test: flow cytometry, ExpiCHO-S cells expressing human DR4, average ± SEM
[5] = target: T2, human FAPα (Fibroblast activation …); test: flow cytometry, human lung fibroblasts, n = 1
Method: (§2) Human lung fibroblasts and CAFs (50,000 cells/well) were seeded in 96-Well round bottom plates (Greiner Bio-one, Cat #650101). Antibody dilutions were prepared using fluorescence-activated cell sorting (FACS) buffer, consisting of phosphate buffer saline (PBS, Lonza, Cat #BE17-517Q)+1% Bovine Serum Albumin (BSA, Roche, Cat #10735086001)+0.02% Sodium Azide (Bio-World, Cat #41920044-3). Plates were centrifuged, supernatant was removed, cells were resuspended in 50 μL of human Fc Block (BD, Cat #564220, diluted 1:100 in FACS buffer) and 50 μL of viability stain TO-PRO-3 Iodide (Thermo Fisher, Cat #T3605, diluted 1: 25,000 in FACS buffer), and incubated for 15 min at 4° C. Plates were washed three times with FACS buffer. Plates were centrifuged, supernatant was removed, cells were resuspended in 50 μL of antibody dilutions (concentration range 90-0.0005 μg/mL, three-fold dilution steps using FACS buffer) of BisG1-FAPα-FERL/DR4-FERR, BisG1-FAPα-FERL/b12-FERR, BisG1-b12-FERL/b12-FERR (top six concentrations only for CAFs culture) or IgG1-FAPα-FERL (top four concentrations only for CAFs culture) and incubated for 30 min at 4° C. Cells were washed three times with FACS buffer and resuspended in 50 μL of Fluorescein isothiocyanate (FITC)-labeled polyclonal antibody goat anti-mouse IgG1 (Jackson Immuno Research, Cat #109-096-097, diluted 1:100 in FACS buffer). After 30 min incubation at 4° C., cells were washed twice with FACS buffer and resuspended in FACS buffer. Antibody binding to viable cells (TO-PRO-3 negative) was analyzed by flow cytometry on a FACSCelesta™ (BD biosciences) and data were processed using FlowJo_v10.8.1 (FlowJo LLC). Geomean fluorescence intensity, gMFI, was determined and visualized using GraphPad Prism. Binding curves were analyzed using nonlinear regression analysis. The concentration (pg/mL) at which 50% of the maximal effect was observed (EC₅₀) was derived from the fitted curves.
(§3) Binding of FAPα-targeting monoclonal antibody clones, IgG1-FAPα-FEAL and IgG1-FAP5-FEAL, and bispecific antibodies carrying a binding arm derived from the two FAPα-binding clones (BisG1-FAPα-FEAL/b12-FEAR and BisG1-FAP5-FEAL/b12-FEAR) to human lung fibroblasts, which endogenously express FAPα, was compared and analyzed by flow cytometry.

[6] = target: T2, human FAPα (Fibroblast activation …); test: flow cytometry, human lung fibroblasts, n = 2
Method: as §2, with “After 30 min incubation at 4° C., cells were washed twice with FACS buffer and resuspended in FACS buffer.” left out, “The concentration (pg/mL) at which 50% of the maximal effect was observed (EC₅₀) was derived from the fitted curves.” left out
as §3

| Binder | EC50 [1] [µg/mL] | EC50 [2] [µg/mL] | EC50 (read off the curve) [3] [µg/mL] | EC50 [4] [µg/mL] | EC50 [5] [µg/mL] | EC50 [6] [µg/mL] |
| --- | --- | --- | --- | --- | --- | --- |
| B1 | 1.23 | 1.02 | ~1 | 1.12 | – | – |
| B2 | – | – | – | – | 0.15 | 0.2 |
